Laboratory results published in paper PMC8879280, “A Low-Activity Polymorphic Variant of Human NEIL2 DNA Glycosylase”.

T1: hNEIL2 P304T P304T (Homo sapiens) (UniProt Q969S2)
T1 sequence: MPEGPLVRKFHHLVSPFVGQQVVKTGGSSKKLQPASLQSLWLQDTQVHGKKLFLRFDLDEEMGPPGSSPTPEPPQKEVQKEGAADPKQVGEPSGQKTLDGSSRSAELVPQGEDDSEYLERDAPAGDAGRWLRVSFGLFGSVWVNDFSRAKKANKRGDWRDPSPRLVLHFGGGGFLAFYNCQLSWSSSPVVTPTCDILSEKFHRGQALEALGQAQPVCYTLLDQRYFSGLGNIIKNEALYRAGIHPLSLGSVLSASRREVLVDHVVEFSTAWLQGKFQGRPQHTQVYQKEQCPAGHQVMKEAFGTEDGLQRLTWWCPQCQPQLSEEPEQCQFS

T2: hNEIL2 R103W R103W (Homo sapiens) (UniProt Q969S2)
T2 sequence: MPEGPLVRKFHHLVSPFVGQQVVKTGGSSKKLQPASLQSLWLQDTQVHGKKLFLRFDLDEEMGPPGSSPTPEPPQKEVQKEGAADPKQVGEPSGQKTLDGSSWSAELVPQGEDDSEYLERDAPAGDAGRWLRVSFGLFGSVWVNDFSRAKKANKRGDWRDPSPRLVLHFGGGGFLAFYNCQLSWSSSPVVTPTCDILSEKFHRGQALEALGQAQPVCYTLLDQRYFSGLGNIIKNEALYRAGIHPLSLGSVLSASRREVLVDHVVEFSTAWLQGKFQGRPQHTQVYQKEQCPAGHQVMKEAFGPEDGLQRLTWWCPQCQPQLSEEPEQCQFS

T3: hNEIL2 WT (Homo sapiens) (UniProt Q969S2)
T3 sequence: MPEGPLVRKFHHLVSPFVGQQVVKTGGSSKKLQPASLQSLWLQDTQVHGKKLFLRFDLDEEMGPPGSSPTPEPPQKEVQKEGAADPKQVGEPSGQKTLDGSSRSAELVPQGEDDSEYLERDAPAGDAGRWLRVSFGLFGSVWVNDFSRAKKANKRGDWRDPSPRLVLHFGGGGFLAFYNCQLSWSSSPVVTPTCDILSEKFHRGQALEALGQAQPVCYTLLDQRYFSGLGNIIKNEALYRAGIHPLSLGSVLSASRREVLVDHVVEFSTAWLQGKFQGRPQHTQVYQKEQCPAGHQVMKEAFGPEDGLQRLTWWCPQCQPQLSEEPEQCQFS

T4: hNEIL2 P304T (Homo sapiens, UniProt Q969S2 1-332, P304T)
T4 sequence: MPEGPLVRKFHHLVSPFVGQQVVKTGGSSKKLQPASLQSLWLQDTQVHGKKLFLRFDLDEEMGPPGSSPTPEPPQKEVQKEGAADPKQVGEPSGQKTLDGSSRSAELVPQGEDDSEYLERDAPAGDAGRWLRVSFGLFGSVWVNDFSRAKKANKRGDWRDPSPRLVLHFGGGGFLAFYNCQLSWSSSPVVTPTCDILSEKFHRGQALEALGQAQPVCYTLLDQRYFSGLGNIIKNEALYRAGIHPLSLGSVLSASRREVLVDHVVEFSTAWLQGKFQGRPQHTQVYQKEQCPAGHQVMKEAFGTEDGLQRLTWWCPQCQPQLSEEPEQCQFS

T5: hNEIL2 R103W (Homo sapiens, UniProt Q969S2 1-332, R103W)
T5 sequence: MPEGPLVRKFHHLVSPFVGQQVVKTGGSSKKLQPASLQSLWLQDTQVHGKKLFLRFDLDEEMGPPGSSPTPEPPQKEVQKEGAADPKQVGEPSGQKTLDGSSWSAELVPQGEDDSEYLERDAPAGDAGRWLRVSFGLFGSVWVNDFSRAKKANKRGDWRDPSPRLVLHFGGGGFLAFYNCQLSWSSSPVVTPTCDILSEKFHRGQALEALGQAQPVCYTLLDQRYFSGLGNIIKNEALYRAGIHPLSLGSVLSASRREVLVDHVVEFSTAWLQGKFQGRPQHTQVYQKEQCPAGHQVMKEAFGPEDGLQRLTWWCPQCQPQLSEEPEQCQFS

T6: hNEIL2 WT (Homo sapiens, UniProt Q969S2 1-332)
T6 sequence: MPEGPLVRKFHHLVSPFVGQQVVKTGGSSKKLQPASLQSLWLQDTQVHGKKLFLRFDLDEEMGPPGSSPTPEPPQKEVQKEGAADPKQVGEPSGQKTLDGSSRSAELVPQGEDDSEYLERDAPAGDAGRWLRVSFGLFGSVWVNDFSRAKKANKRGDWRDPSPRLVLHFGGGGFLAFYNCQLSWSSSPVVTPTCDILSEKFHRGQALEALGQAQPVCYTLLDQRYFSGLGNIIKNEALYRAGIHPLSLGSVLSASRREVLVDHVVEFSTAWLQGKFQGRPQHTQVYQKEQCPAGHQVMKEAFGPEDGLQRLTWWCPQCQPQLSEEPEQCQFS

B1: 40C//40bubble (undamaged bubble) (dsDNA)
DNA 1: CCTGCATGGGCGGCAGAACTCGAGGCCATCCTCACCATCC
DNA 2: GGATGGTGAGGATGGGAGGTTCCCTTGCCGCCCATGCAGG

Assays:
[1] = molecular target: T1, hNEIL2 P304T P304T (Homo sapiens); test: EMSA; details: THF (AP site analog) at position 21 of strand 1 (N); 25 mM potassium phosphate pH 7.5, 5 mM MgCl2, 1 mM DTT, 0.5 mg/mL BSA, 10% glycerol; 35 nM bubble or 100 nM duplex ligand; 5 min on ice, 8% native PAGE at 4 C
[2] = molecular target: T2, hNEIL2 R103W R103W (Homo sapiens); test: EMSA; details: THF (AP site analog) at position 21 of strand 1 (N); 25 mM potassium phosphate pH 7.5, 5 mM MgCl2, 1 mM DTT, 0.5 mg/mL BSA, 10% glycerol; 35 nM bubble or 100 nM duplex ligand; 5 min on ice, 8% native PAGE at 4 C
hNEIL2 WT (Homo sapiens) = molecular target: T3, hNEIL2 WT (Homo sapiens); test: EMSA; details: THF (AP site analog) at position 21 of strand 1 (N); 25 mM potassium phosphate pH 7.5, 5 mM MgCl2, 1 mM DTT, 0.5 mg/mL BSA, 10% glycerol; 35 nM bubble or 100 nM duplex ligand; 5 min on ice, 8% native PAGE at 4 C
hNEIL2 P304T = molecular target: T4, hNEIL2 P304T; test: EMSA; 5 mM Mg2+; apparent, sigmoidal fit; 25 mM potassium phosphate pH 7.5, 5 mM MgCl2, 1 mM DTT, 0.5 mg/mL BSA, 10% glycerol; 35 nM bubble or 100 nM duplex ligand; 5 min on ice, 8% native PAGE at 4 C; details: protein: recombinant; tags: C-terminal GHHHHHH; label: 32P; 10-nt central bubble between two 15-bp arms, blunt
hNEIL2 R103W = molecular target: T5, hNEIL2 R103W; test: as above; details: protein: recombinant; tags: C-terminal GHHHHHH; label: 32P; 10-nt central bubble between two 15-bp arms, blunt
hNEIL2 WT = molecular target: T6, hNEIL2 WT; test: as above; details: protein: recombinant; tags: C-terminal GHHHHHH; label: 32P; 10-nt central bubble between two 15-bp arms, blunt

Row | Molecule | K half [1] [µM] | K half [2] [µM] | K half (hNEIL2 WT (Homo sapiens)) [nM] | apparent K (half saturation) (hNEIL2 P304T) [µM] | apparent K (half saturation) (hNEIL2 R103W) [µM] | apparent K (half saturation) (hNEIL2 WT) [nM]
1 | CCTGCATGGGCGGCAGAACTNGAGGCCATCCTCACCATCC / GGATGGTGAGGATGGGAGGTTCCCTTGCCGCCCATGCAGG [40F//40bubble (THF bubble)] | 6.4 | 10.4 | 1000 | – | – | –
2 | B1 | – | – | – | 7 ± 0.3 | 11.7 ± 0.7 | 1000 ± 100
